Measured values: patent publication US12551573B2, “Compositions and methods for the targeting of PCSK9” (Scribe Therapeutics Inc., priority 2022, dated 2026)

Test system: HBEGF locus
Assay type: cell-based, human
Settings: fold change in abundance of each repressor domain in the dXR library before vs after diphtheria toxin selection; dXR repression of the HBEGF gene; domains meeting p-value <0.01 and log2(fold change) >2

| Molecule | Log2 (fold change) |
| --- | --- |
| DOMAIN_29066 (protein, listed as Xenopus tropicalis) VKFDEVAVVFSEDEWNLLTDQQRGLYMEVMKENYEHLIYLGFEVPVILSLLQDGGGIGSDTVTQSKSQQVAGAEESKSSVTLEGPIPETLPS | 2.6393 |
| DOMAIN_27566 (protein, Muntiacus muntjak) QLTFEDVALSFSKEEWQIMDPNQKTLYIDVMREIYETVTSLGLKLKNDTGNDQPVSLSTSEIQPSGCKVLRKARMKVAQTT | 2.7825 |
| DOMAIN_28158 (protein, listed as Odocoileus virginianus) QLTFEDVALSFSKEEWQIMDPNQKTLYIDVMQEIYETVTSLGLKLKNDTGNDQPVSLSTSEIQPSGCKVLRKARMKVAQTT | 3.0762 |
| DOMAIN_26496 (protein, listed as Geotrypetes seraphini) QMPVKFEDIAVSFSQEEWEYLDEEQKELYREVMKENYQTLISLGTGSPSITPDIISHIERGEEPYIREEPGSEEREPGRSS | 2.7991 |
| DOMAIN_26463 (protein, listed as Pelodiscus sinensis) DSMRVTFEEVAVYFTPGQGALLGPAQRALYRDVMQENYEAVTSLGFPVPKPELIARLERGEEPWVPDLQAREEREIPRGTC | 2.8812 |
| DOMAIN_28823 (protein, Microcaecilia unicolor) QVPVTFEDITVYFSREQWEYLDEGQKELYREVMKENYETLISLGTGPEGFNPEVLARIKLEEESHVWDPKEPGQKEVTRSY | 2.331 |
| DOMAIN_27579 (protein, Muntiacus muntjak) SQELLTFKDISVDFTQEEWGQLAPAHRNLYREVMLENYGNLVSVAGCQLSKPSVISQLEKGEEPWMTEKEGPGDPSSDLKS | 3.8878 |
| DOMAIN_27902 (protein, Vulpes vulpes) SQELLTFKDVSVDFTQEEWGQLSLAHRNLYREVMLENYGNLVSVAGYQLSKPSVISQLEKGQEPWMTEKKGPGDPSPDLKN | 2.9068 |
| DOMAIN_28085 (protein, listed as Enhydra lutris) SQELLTFKDISVDFTQEEWGQLPLAHRNLYREVMLENYGNLVSVAGYQLSKPSVISQLEKGQEPWMTEKEVPEDPSSDLRT | 2.2962 |
| DOMAIN_28051 (protein, listed as Neomonachus schauinslandi) SQGLLTFKDISVDFTQEEWGQLAPAHRNLYREVMLENYGNLVSVAGYQLSKPSVISQLEKGQEPWMTEKEGPGDSSSDLKN | 2.4353 |
| DOMAIN_26925 (protein, listed as Alligator sinensis) PETVVSFEDVAVRFSPDEWHLLDDGQRRLYRDVLRENYSHVRSLGFPVPDLAVIFRMERGEEPWPPGLPAGTKSDDQEEER | 3.2248 |
| DOMAIN_27032 (protein, listed as Alligator mississippiensis) PETVVSFEDVAVRFSPDEWHLLDDGQRRLYRDVLRENYSHVRSLGFPVPDLAVIFRMERGEEPWPPGLPAGEWPWGQGQAP | 3.4805 |
| DOMAIN_29434 (protein, listed as Mus caroli) MTYDDVHVNFTGEEWALLSPSQKRLYKDVMLETYRNLTAIGYNWEDHNSEHFQHSRRHGRHERRHTGEKPSVYTQCGKVFAYH | 2.2707 |
| DOMAIN_26886 (protein, listed as Homo sapiens) QLQETMTFKDVEVTFSQDEWGWLDSAQRNLYRDVMLENYRNMASLVGPFTKPALISWLEAREPWGLNMQAAQPKGNPVAAP | 3.3209 |
| DOMAIN_26501 (protein, listed as Geotrypetes seraphini) AQVPVTFEDIAVYFSQEEWEDLEEQQRELYKDVMKENYETLSSLGPPAVTPDIISHIERGEEPYIRFESGPEEREIGKSSC | 2.6513 |
| DOMAIN_31935 (protein, listed as Rhinolophus ferrumequinum) EKIEDMAVSLIREEWLLDPSQKDLRRDNRTENYRNMFSLGGETRSENRELASKQVASAGVQPHGETAARCNGDVTGALEHGEARDLLGSRVERQRAN | 3.5544 |
| DOMAIN_29900 (protein, Nomascus leucogenys) VAFEDVAVNFTQEEWALLNSSQKNLYREVMQETCRNLASVGSKWKDQNIEDHFEKPGKNIRKHMVQKLCESKEGSQYGEVVSQIPNL | 2.1583 |
| DOMAIN_26999 (protein, listed as Xenopus laevis) AQDPVTFDDISVYFSRDEWALLDAGQKQLYREVMAENYRALVSVGYVMEEPGLVSHIEHEQQGSPIRSRSSLHAGRHCGFI | 3.4317 |
| DOMAIN_31340 (protein, listed as Homo sapiens) LTFEDVAVYFSEEEWQLLNPLEKTLYNDVMQDIYETVISLGLKLKNDTGNDHPISVSTSEIQTSGCEVSKKTRMKIAQKTMGRE | 2.8261 |
| DOMAIN_32327 (protein, listed as Homo sapiens) NMSQASVSFQDVTVEFTREEWQHLGPVERTLYRDVMLENYSHLISVGYCITKPKVISKLEKGEEPWSLEDEFLNQRYPGY | 3.1024 |
| DOMAIN_32223 (protein, listed as Homo sapiens) GPQGARRQAFLAFGDVTVDFTQKEWRLLSPAQRALYREVTLENYSHLVSLGILHSKPELIRRLEQGEVPWGEERRRRPGP | 2.8836 |

Same assay, conditions: high-throughput screen of dXR repression of the HBEGF gene; abundance of each domain in the library before vs after diphtheria toxin selection; listed domains met p-value <0.01 and log2(fold change) >2

| Molecule | Log2 (fold change) |
| --- | --- |
| DOMAIN_26103 (protein, listed as Geotrypetes seraphini) EMRVMFEEITVSFSQEEWEYLDEGQKELYQEVMKENHETLIFLETNLQFVNPDMLSKIRRDSRMSRKRKATRSYAADDEAK | 2.5308 |
| DOMAIN_26177 (protein, listed as Geotrypetes seraphini) ASAQVTFEDIAVSFCHEEWRYLDEGQKELYKEVMKENYETLISLGFLCEKPSLISKIEQEEDPCVRDQQNSRERRRRLKNF | 3.4467 |
| DOMAIN_26131 (protein, listed as Geotrypetes seraphini) AQMPVKFEDIAVSFSQEEWEYLNEEQKELYREVMEENYQTLISLGSPPVTPDIISHIERGEEPYIREEPGSEEREPGRSSC | 2.4087 |
| DOMAIN_26407 (protein, listed as Colinus virginianus) PSVPVTFRDVFVQFSRDEWALLDDEQKELHQSVMQSNYEMLMSLYCDLAKPEVSLQMERGEPCLPAEPDLQGTAVSLNPAA | 2.9778 |
| DOMAIN_25996 (protein, listed as Geotrypetes seraphini) QMPVKFEDIAVSFSQEEWEYLNEEQKELYREVMEENYQTLISLGTGSPPITPDIISHIERGEEPYIREEPGSEERGPVRSS | 3.984 |
| DOMAIN_26180 (protein, listed as Geotrypetes seraphini) QMPVKFEDIAVSFSQEEWEYLNEEQKELYREVMEENYQTLISLGIGSPSVTPDIISHIEGGEEPYIREEPGSEEREPGRSS | 3.4522 |
| DOMAIN_26306 (protein, listed as Geotrypetes seraphini) QMPIKFEDIAVSFSQEEWEYLNEEQKELYREVMKENYQTLISLGTGSPPVTPDIISHIERGEEPYIREEPGSEEREPGRSS | 2.6178 |
| DOMAIN_26012 (protein, listed as Geotrypetes seraphini) QMQVKFEDIAISFSQEEWEYLNEEQKELYREVMEENYQTLLSLATDSPTFTPKIISYIKRGEEPYIRGEPDSEERESGKSS | 2.3532 |
| DOMAIN_26134 (protein, listed as Geotrypetes seraphini) AQVPVTFEDIAIYFSQEEWEYLDEGQKALYREVMKENYETLLLLGCPGLKPVIISSIEQGEEPCVRKLQERAELYPTAGDE | 2.4433 |
| DOMAIN_26292 (protein, listed as Geotrypetes seraphini) QMQVTFEEVAISFSQEEWEYLDEEQKELYREVMKENYQTLISLATGSPTVTPKIIAHIERGEEPYIRGEPGSEERETGNSS | 2.4722 |
| DOMAIN_26299 (protein, listed as Geotrypetes seraphini) QIPVIFEDIVIYFSQEEWKDLEEWQKELYKDVMKENYQTLISLGTGFPTPPPDIISHIERGEEPYIRDELESEKRETGKRG | 2.3704 |
| DOMAIN_26268 (protein, listed as Geotrypetes seraphini) VARMQTRVTFDDIAVSFSQEEWEYLDEGQKELYREVMEENLELLTSLGSLVAQPEQMEELYMMDHHDMGLRGTLLSLCTED | 2.1404 |
| DOMAIN_26044 (protein, listed as Geotrypetes seraphini) QMRLRFEDISVSFSQEEWAYLDEEQKELYREVMRDNYQTLISLGIGSPPVTPDIISCIEQGEEPYIRDEPGSEERKTGRSS | 2.8874 |
| DOMAIN_26305 (protein, listed as Geotrypetes seraphini) QQMQVTFEDVAVSFSQEEWEYLDEGQKELYREVMKENYETVVSLGSPASTPKIISCIECGEEAYIRGEPGSEGRETGKSSC | 3.0107 |

Same assay, conditions: high-throughput screen of dXR repression of the HBEGF gene; change in abundance of each domain in the library before and after diphtheria toxin selection

| Molecule | Log2 (fold change) |
| --- | --- |
| DOMAIN_980 (protein, Pan troglodytes) MPLKAQYQEMVTFEDVAVHFTKTEWTGLSPAQRALYRSVMLENFGNLTALGYPVPKPALISLLEGGDMAWGLEAQDDPPAE | 2.9297 |
